These are literature values, as cited in paper PMC3197213.

The series concerns the target syntaxin-1 SNARE motif (Rattus norvegicus) (UniProt P32851).

syntaxin-1 SNARE motif (Rattus norvegicus), sequence (P32851 191-253): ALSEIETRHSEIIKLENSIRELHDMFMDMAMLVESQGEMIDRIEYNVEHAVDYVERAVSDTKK

Take “Munc13-1 MUN domain (from UniProt Q62768)”: the Kd is 46 µM.
